Two molecules from patent US20200157212A1 (Pfizer, published 2020) can be followed below.

For the experiment, the target named is T1, Cynomolgus monkey ROBO2 overexpressed on HEK293 cells (cynomolgus monkey, UniProt Q9HCK4 22-1378 (human entry)).
T1 chain: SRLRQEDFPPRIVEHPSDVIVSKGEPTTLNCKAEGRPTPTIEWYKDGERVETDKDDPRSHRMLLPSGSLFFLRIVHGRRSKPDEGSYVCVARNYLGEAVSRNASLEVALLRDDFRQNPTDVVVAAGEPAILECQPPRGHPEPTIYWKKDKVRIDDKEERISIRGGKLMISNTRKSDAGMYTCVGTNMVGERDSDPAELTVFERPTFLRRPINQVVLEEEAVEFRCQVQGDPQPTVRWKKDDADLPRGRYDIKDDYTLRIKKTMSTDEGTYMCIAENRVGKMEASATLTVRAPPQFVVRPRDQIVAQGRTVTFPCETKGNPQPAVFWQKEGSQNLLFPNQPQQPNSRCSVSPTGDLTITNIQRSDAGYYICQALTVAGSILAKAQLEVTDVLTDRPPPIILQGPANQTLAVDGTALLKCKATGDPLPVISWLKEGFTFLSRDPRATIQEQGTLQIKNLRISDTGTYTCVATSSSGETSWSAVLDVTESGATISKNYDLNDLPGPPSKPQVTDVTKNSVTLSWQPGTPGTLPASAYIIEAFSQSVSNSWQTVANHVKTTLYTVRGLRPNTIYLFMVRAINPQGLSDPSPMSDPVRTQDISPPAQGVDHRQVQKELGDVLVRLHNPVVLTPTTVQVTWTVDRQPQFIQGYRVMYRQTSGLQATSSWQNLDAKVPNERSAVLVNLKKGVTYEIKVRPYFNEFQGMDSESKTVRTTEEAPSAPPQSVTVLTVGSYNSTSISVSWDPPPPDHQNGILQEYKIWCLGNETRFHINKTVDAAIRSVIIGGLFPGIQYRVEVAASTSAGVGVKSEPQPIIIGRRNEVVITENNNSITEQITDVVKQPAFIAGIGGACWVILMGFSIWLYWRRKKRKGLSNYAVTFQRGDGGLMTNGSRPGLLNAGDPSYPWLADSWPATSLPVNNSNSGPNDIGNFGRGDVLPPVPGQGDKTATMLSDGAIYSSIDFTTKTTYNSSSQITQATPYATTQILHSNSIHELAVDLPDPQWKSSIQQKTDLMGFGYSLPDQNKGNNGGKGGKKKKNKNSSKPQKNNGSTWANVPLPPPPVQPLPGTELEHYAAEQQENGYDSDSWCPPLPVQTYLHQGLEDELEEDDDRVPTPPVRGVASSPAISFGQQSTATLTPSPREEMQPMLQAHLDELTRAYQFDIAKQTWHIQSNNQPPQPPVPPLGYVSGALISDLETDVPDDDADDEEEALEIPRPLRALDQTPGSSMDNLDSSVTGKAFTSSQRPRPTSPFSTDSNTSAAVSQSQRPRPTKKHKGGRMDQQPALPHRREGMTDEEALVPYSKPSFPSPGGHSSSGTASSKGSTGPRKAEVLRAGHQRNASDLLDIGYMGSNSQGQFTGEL
Briefly: flow cytometry, HEK293 cells. The procedure:
Using flow cytometry, improvement in the binding EC₅₀ to human ROBO2 relative to the parental 93H2 was evaluated. Starting at 6.7 nM, 11-point, 3-fold dilution series were made for each antibody and used to stain HEK293 overexpressing human ROBO2 as described above for the ROBO2 fold selectivity (Example 2). […] In addition to measuring improved binding to human ROBO2, it was important to ensure that high affinity binding to both cynomolgus monkey ROBO2 and rat ROBO2 was maintained. Using HEK293 cells overexpressing either cynomolgus monkey ROBO2 or rat ROBO2, the relative dose-dependent binding of 93H2, Abcs25 and Abcs35 was evaluated as described above. High affinity binding to both cynomolgus monkey and rat ROBO2 was maintained in Abcs25 and Abcs35 (Table 4). […] Briefly, Abcs35 was immobilized to 300 resonance units (RU) on a CM5 chip. Association of ROBO2 Ig1-Ig2-His (ROBO2) was measured over 5 minutes and dissociation was followed for a period of 10 minutes.
The binding profile of Abcs35-J compared to Abcs35 was determined for human ROBO2, orthologs from cynomolgus monkey and rat, human ROBO1 and specificity for the RSK epitope from ROBO2 but not KSR from ROBO1. Binding was assessed by flow cytometry as described in Examples 2 (homolog specificity), Example 3 (ortholog reactivity) and Example 5 (RSK vs KSR epitope specificity). […] Binding of the antibodies was detected using a secondary fluorochrome conjugated anti-human IgG F(ab′)₂ antibody and samples analyzed on a Fortessa cytometer (BD Biosciences).

B1: Abcs35 (antibody, human IgG1, kappa)
heavy: EVQLVQSGAEVKKPGASVKVSCKASGYTFTGYYMHWVRQAPGQGLEWMGWINPKNGDTEFPQKFQGRVTMTRDTSITTAYMDLSRLRSDDTAVYYCARESGDDAFDIWGQGTMVTVSSASTKGPSVFPLAPSSKSTSGGTAALGCLVKDYFPEPVTVSWNSGALTSGVHTFPAVLQSSGLYSLSSVVTVPSSSLGTQTYICNVNHKPSNTKVDKKVEPKSCDKTHTCPPCPAPEAAGAPSVFLFPPKPKDTLMISRTPEVTCVVVDVSHEDPEVKFNWYVDGVEVHNAKTKPREEQYNSTYRVVSVLTVLHQDWLNGKEYKCKVSNKALPAPIEKTISKAKGQPREPQVYTLPPSREEMTKNQVSLTCLVKGFYPSDIAVEWESNGQPENNYKTTPPVLDSDGSFFLYSKLTVDKSRWQQGNVFSCSVMHEALHNHYTQKSLSLSPGK
light: DIVMTQSPSSLSASVGDRVTITCRASQSISSYLNWYQQKPGKAPKLLIYAASSLQSGVPSRFSGSGSGTDFTLTISSLQPEDFATYYCQQSVGLFFGGGTKVEIKRTVAAPSVFIFPPSDEQLKSGTASVVCLLNNFYPREAKVQWKVDNALQSGNSQESVTEQDSKDSTYSLSSTLTLSKADYEKHKVYACEVTHQGLSSPVTKSFNRGEC
notes: fully human IgG1; VH of Ab96 with VL of Ab123
Usually EC50 stands for the concentration giving half of the maximal effect. With B1, the response was half-maximal at 0.111 nM (EC50).

B2: Abcs35-J (antibody, human IgG1, kappa)
heavy: EVQLVQSGAEVKKPGASVKVSCKASGYTFTGYYMHWVRQAPGQGLEWMGWINPKNGDTEFPQKFQGRVTMTRDTSITTAYMELSRLRSDDTAVYYCARESGDDAFDIWGQGTMVTVSSASTKGPSVFPLAPSSKSTSGGTAALGCLVKDYFPEPVTVSWNSGALTSGVHTFPAVLQSSGLYSLSSVVTVPSSSLGTQTYICNVNHKPSNTKVDKKVEPKSCDKTHTCPPCPAPEAAGAPSVFLFPPKPKDTLMISRTPEVTCVVVDVSHEDPEVKFNWYVDGVEVHNAKTKPREEQYNSTYRVVSVLTVLHQDWLNGKEYKCKVSNKALPAPIEKTISKAKGQPREPQVYTLPPSREEMTKNQVSLTCLVKGFYPSDIAVEWESNGQPENNYKTTPPVLDSDGSFFLYSKLTVDKSRWQQGNVFSCSVMHEALHNHYTQKSLSLSPGK
light: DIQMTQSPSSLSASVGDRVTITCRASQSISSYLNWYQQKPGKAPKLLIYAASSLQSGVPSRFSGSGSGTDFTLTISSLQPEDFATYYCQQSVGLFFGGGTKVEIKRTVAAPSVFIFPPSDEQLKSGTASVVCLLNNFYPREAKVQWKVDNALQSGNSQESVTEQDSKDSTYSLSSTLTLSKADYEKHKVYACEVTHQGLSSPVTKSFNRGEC
notes: germlined variant of Abcs35; also called ABCS-J
As to B2, a half-maximal effect (EC50) was put at 0.099 nM.
